This is an account of results in US20130260436A1, “Methods of Identifying and Characterizing Natural Product Gene Clusters” (Victoria LInk Limited, priority 2010, published 2013).

In one experiment the target is PP1183 (Pseudomonas putida, UniProt Q88NM4). The experiment in a line: Carrier protein (CoA) competition assay with PP1183. It counts as biochemical, P. putida KT2440. The conditions noted are these: competition with BpsA for limited CoA (250 nM), read-out: IC50 for carrier protein mediated inhibition of BpsA activation. From the text: (§1) Another aspect of the invention described is a CoA competition assay for PPTase characterization. Assays of this type consist of two phases. In the first phase is the competition phase in which apo-BpsA and a purified carrier protein (CP) to be characterized compete for a limited pool of CoA which is attached to either the CP to be characterized or apo-BpsA by a PPTase. During this first phase, only the substrates necessary for phosphopantetheinylation are present. Following the competition phase, the production phase is initiated. In the production phase, the substrates required for pigment synthesis by holo-BpsA (L-gln and ATP) are added to reaction vessels and the velocity (A590/s) of the resulting reaction measured. […]
(§2) One limitation of the approach outlined above for determination of PPTase kinetic parameters is that it only provides information about a PPTase of interest with a single carrier protein substrate (that of BpsA). […] Four carrier proteins were employed in assessed using this assay, these were: The peptide carrier protein of BpsA (bPCP), the peptide carrier protein of the first module of the Pseudomonas aeruginosa NRPS PvdD (pPCP), the peptide carrier protein of the Microcysitis aeruginosa NRPS/PKS MycG (mPCP) and the aryl carrier protein from Nostoc punctiforme protein HetM (npArCP). […]

Another experiment has as its target PcpS (Pseudomonas aeruginosa, UniProt Q9I4H2). The experiment in a line: Carrier protein (CoA) competition assay with PcpS. The class given is biochemical, P. aeruginosa PAO1. The conditions noted are these: competition with BpsA for limited CoA (250 nM), read-out: IC50 for carrier protein mediated inhibition of BpsA activation.
From the text: as §1, §2

Another experiment addresses Sfp (Bacillus spizizenii, UniProt G4NQW2). The experiment in a line: Carrier protein (CoA) competition assay with Sfp. The conditions noted are these: competition with BpsA for limited CoA (250 nM), read-out: IC50 for carrier protein mediated inhibition of BpsA activation. The class given is biochemical, B. subtilis subsp. spizizenii ATCC6633.
From the text: as §1, §2

Experiment [1] concerns the target PcpS, phosphopantetheinyl transferase of Pseudomonas aeruginosa PAO1 (Pseudomonas aeruginosa PAO1). The experiment can be described thus: cell-based or functional assay.
Experiment [2] has as its target Sfp, phosphopantetheinyl transferase of Bacillus subtilis subsp. spizizenii ATCC6633 (Bacillus subtilis subsp. spizizenii ATCC6633). The experiment can be described thus: cell-based or functional assay.
The target of experiment [3] is PP1183, putative phosphopantetheinyl transferase of Pseudomonas putida KT2440 (Pseudomonas putida KT2440). The experiment can be described thus: cell-based or functional assay.

Sequence of PcpS (Q9I4H2 entry or part of it): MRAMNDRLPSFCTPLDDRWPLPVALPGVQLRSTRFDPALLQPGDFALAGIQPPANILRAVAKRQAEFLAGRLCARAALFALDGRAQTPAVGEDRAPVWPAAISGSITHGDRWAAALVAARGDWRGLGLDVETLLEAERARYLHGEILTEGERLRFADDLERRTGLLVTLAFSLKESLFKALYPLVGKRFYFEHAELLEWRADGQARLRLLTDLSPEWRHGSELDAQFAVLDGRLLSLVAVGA
Sequence of PP1183 (Q88NM4 entry or part of it): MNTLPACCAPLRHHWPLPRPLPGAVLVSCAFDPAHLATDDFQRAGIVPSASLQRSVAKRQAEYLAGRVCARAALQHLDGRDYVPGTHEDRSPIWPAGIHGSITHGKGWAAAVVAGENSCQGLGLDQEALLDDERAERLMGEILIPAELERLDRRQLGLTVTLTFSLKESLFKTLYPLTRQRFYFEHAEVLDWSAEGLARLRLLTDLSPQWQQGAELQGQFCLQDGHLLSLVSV
Sequence of Sfp (G4NQW2 entry or part of it): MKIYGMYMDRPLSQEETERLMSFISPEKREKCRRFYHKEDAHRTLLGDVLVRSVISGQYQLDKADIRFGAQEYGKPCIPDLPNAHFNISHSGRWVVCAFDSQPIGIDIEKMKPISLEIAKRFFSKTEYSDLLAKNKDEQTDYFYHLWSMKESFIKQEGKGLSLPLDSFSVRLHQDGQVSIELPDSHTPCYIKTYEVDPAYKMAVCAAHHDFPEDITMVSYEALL

B1: The peptide carrier protein of BpsA (bPCP), purified recombinant His6 tagged (protein)
chain: FVAPRTETEKEIAAVWEKALRRENASVQDDFFESGGNSLIAVGLVRELNARLGVSLPLQSVLESPTIEKLARRLE
Broadly, the IC50 is the concentration needed to halve the response being measured. Take B1: the IC50 was found to be 300 nM with PP1183, 710 nM in the experiment with PcpS and 720 nM in the experiment with Sfp. Also, the figures for the IC50 (carrier protein competition with BpsA for limiting CoA) in experiment [1], in experiment [2] and in experiment [3] were 710 nM, 720 nM and 300 nM, respectively. The results for the kcat/Km (estimate derived from IC50) (Min^-1 · µM^-1) in experiment [1], in experiment [2] and in experiment [3] were 7.77, 0.69 and 3.88, respectively.
